Test results from the supplement of paper PMC7877785.
± gives the uncertainty stated by the source.

Assay: self-splicing fitness, log relative to wild type (ln ratio); higher = more splicing; Tetrahymena group I intron in knt gene, E. coli kanamycin selection, DiMSum; sequences stand for … in CUCUCU…GGAGGGAAAAGUUAUCAGGCAUGCACCUGGUAGCUAGUCUUUAAACCAAUAGAUUGCAUCGGUUUAAAAGGCAAGACCGUCAAAUUGCGGGAAAGGGGUCAACAGCCGUUCAGUACCAAGUCUCAGGGGAAACUUUGAGAUGGCCUUGCAAAGGGUAUGGUAAUAAGCUGACGGACAUGGUCCUAACCACGCAGCCAAGUCCUAAGUCAACAGAUCUUCUGUUGAUAUGGAUGCAGUUCACAGACUAAAUGUCGGUCGGGGAAGAUGUAUUCUUCUCAUAAGAUAUAGUCGGACCUCUCCUUAAUGGGAGCUAGCGGAUGAAGUGAUGCAACACUGGAGCCGCUGGGAACUAAUUUGUAUGCGAAAGUAUAUUGAUUAGUUUUGGAGUACUCGUGGUCG
Outline: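 A randomised library covering all eight P1ex-region intron nucleotides was built with the intron in the knt kanamycin-resistance gene on pET-22b(+) and held in E. coli BL21(DE3). Cells were grown overnight at 37°C or 30°C on LB agar, with or without 25 μg/mL kanamycin, plus 100 μg/mL carbenicillin, 50 μM IPTG and 0.2% rhamnose, and pooled colonies were amplicon-sequenced on an Illumina HiSeq 2500. DiMSum fitness is the error-weighted combination of wild-type-normalised replicate fold changes, kanamycin versus none.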

| Sequence | self-splicing fitness (ln) (30 °C) | self-splicing fitness (ln) (37 °C) |
| --- | --- | --- |
| CGAUAGCAAUAUUACGGAUG | -0.777 ± 0.058 | 0.18 ± 0.07 |
| GGACAGCAAUAUUACGGGCC | – | -1.52 ± 0.29 |
| CAGCAGCAAUAUUACGCACG | -0.667 ± 0.09 | -0.264 ± 0.1 |
| CCCGAGCAAUAUUACGAUAG | -3.17 ± 0.22 | -2.02 ± 0.2 |
| AUUAAGCAAUAUUACGGUAA | -1.64 ± 0.12 | -1.33 ± 0.11 |
| CAUAAGCAAUAUUACGUAUU | -3.24 ± 0.19 | -3.09 ± 0.19 |
| CGUAAGCAAUAUUACGUUCC | -2.63 ± 0.3 | – |
| GGGAAGCAAUAUUACGGCCG | -0.164 ± 0.12 | -0.0913 ± 0.15 |
| CUCAAGCAAUAUUACGAACC | -2.43 ± 0.39 | -2.38 ± 0.28 |
| CCUCAGCAAUAUUACGAAAA | -2.77 ± 0.22 | -2.26 ± 0.33 |
| GGCUAGCAAUAUUACGCGCG | -0.69 ± 0.14 | 0.174 ± 0.17 |
| CUGCAGCAAUAUUACGCAGC | -2.88 ± 0.32 | – |
| GUAUAGCAAUAUUACGGCUA | -0.758 ± 0.13 | -0.383 ± 0.11 |
| AGACAGCAAUAUUACGGUUG | -1.85 ± 0.088 | -1.87 ± 0.13 |
| CAGCAGCAAUAUUACGAUCG | -0.0679 ± 0.074 | 0.219 ± 0.094 |
| UGCGAGCAAUAUUACGACAU | -3.628 ± 0.028 | -2.26 ± 0.039 |
| ACGUAGCAAUAUUACGAACU | -0.677 ± 0.059 | -0.266 ± 0.082 |
| ACUGAGCAAUAUUACGCAUU | -2.71 ± 0.1 | -1.29 ± 0.11 |
| AACCAGCAAUAUUACGUUGU | -2.68 ± 0.077 | -2.38 ± 0.1 |
| CUUCAGCAAUAUUACGCAUA | -4.27 ± 0.37 | -1.82 ± 0.17 |
| UCCUAGCAAUAUUACGUCAC | -1.97 ± 0.2 | -2.6 ± 0.27 |
| CCCGAGCAAUAUUACGGUGG | -3.06 ± 0.13 | -3.2 ± 0.18 |
| ACCUAGCAAUAUUACGAGAU | -2.54 ± 0.091 | -1.3 ± 0.098 |
| GCAGAGCAAUAUUACGACGG | -2.22 ± 0.2 | -1.21 ± 0.18 |
| UUGCAGCAAUAUUACGCUCU | -1.01 ± 0.12 | -0.306 ± 0.13 |
| CAUCAGCAAUAUUACGUCUC | -3.16 ± 0.19 | -1.75 ± 0.17 |

| Sequence | self-splicing fitness (ln) (30 °C) | self-splicing fitness (ln) (37 °C) |
| --- | --- | --- |
| CGGGAGCAAUAUUACGCUUA | -2.19 ± 0.21 | -2.87 ± 0.43 |
| AUGUAGCAAUAUUACGAUUU | -0.199 ± 0.093 | 0.373 ± 0.11 |
| CGACAGCAAUAUUACGAGUC | -4.97 ± 0.36 | -2.42 ± 0.24 |
| CAGGAGCAAUAUUACGCCGA | -1.75 ± 0.4 | – |
| ACGUAGCAAUAUUACGACCA | -0.97 ± 0.086 | -0.34 ± 0.1 |
| CUUAAGCAAUAUUACGCUCU | -2.77 ± 0.13 | -2.81 ± 0.32 |
| GGCGAGCAAUAUUACGCAGG | -2.43 ± 0.23 | -2.75 ± 0.33 |
| UGAUAGCAAUAUUACGACGU | -2.71 ± 0.24 | -1.17 ± 0.37 |
| CGGAAGCAAUAUUACGGCAA | -2.89 ± 0.22 | -1.41 ± 0.18 |
| UCAAAGCAAUAUUACGGGUG | -0.366 ± 0.056 | 0.234 ± 0.074 |
| CUAAAGCAAUAUUACGCAUG | -0.592 ± 0.071 | -0.193 ± 0.089 |
| UAUCAGCAAUAUUACGUACA | -0.141 ± 0.058 | -0.199 ± 0.07 |
| UUUAAGCAAUAUUACGGCUC | -1.82 ± 0.17 | -0.633 ± 0.2 |
| CCAGAGCAAUAUUACGAUAG | -1.42 ± 0.082 | -1 ± 0.12 |
| GGGUAGCAAUAUUACGUAAC | -1.07 ± 0.15 | -0.795 ± 0.22 |
| GUACAGCAAUAUUACGCUCA | -1.07 ± 0.091 | -0.188 ± 0.11 |
| AAAUAGCAAUAUUACGCUCU | -0.111 ± 0.075 | -0.0401 ± 0.091 |
| GUUAAGCAAUAUUACGCUGU | -2.62 ± 0.21 | -1.78 ± 0.17 |
| GAGGAGCAAUAUUACGCUCG | -1.49 ± 0.14 | -1.26 ± 0.22 |
| GAGUAGCAAUAUUACGAGCG | -2.04 ± 0.075 | -0.489 ± 0.077 |
| AUGGAGCAAUAUUACGCCUG | -2.34 ± 0.27 | -2.3 ± 0.28 |
| AUUGAGCAAUAUUACGCGGG | -3.34 ± 0.36 | -2.25 ± 0.35 |
| GGUAAGCAAUAUUACGAGAC | -1.71 ± 0.39 | -0.652 ± 0.27 |
| AAAAAGCAAUAUUACGCGGG | -2.76 ± 0.16 | -1.93 ± 0.15 |
| AGUUAGCAAUAUUACGAACU | -1.59 ± 0.23 | -1.89 ± 0.28 |
| ACUAAGCAAUAUUACGGGUG | -0.981 ± 0.06 | -0.673 ± 0.097 |

| Sequence | self-splicing fitness (ln) (30 °C) | self-splicing fitness (ln) (37 °C) |
| --- | --- | --- |
| CAUUAGCAAUAUUACGCUUG | -2.46 ± 0.2 | -2.6 ± 0.2 |
| UCUGAGCAAUAUUACGUCAU | -3.81 ± 0.35 | -2.76 ± 0.2 |
| GUCCAGCAAUAUUACGAAUG | -2.65 ± 0.17 | -1.31 ± 0.15 |
| AGUCAGCAAUAUUACGGCAC | -0.122 ± 0.093 | -0.255 ± 0.14 |
| GCUAAGCAAUAUUACGUCAC | -3.38 ± 0.44 | -2.35 ± 0.24 |
| AAACAGCAAUAUUACGUGAU | -2.18 ± 0.053 | -1.13 ± 0.072 |
| CAGCAGCAAUAUUACGCGUC | -3.68 ± 0.17 | -1.24 ± 0.13 |
| GCUAAGCAAUAUUACGUAGG | -1.34 ± 0.059 | -0.249 ± 0.087 |
| GGCUAGCAAUAUUACGGACU | -0.601 ± 0.081 | 0.198 ± 0.098 |
| UAAAAGCAAUAUUACGCAUU | -3.33 ± 0.19 | -2.15 ± 0.19 |
| UGGCAGCAAUAUUACGCAGC | – | -2.2 ± 0.39 |
| CAUUAGCAAUAUUACGGGGA | -2.73 ± 0.21 | -1.77 ± 0.26 |
| CUCGAGCAAUAUUACGUUUA | -3.22 ± 0.41 | -3.05 ± 0.4 |
| GUGAAGCAAUAUUACGGGAC | -1.8 ± 0.12 | -0.623 ± 0.13 |
| AAGGAGCAAUAUUACGGCAG | -2.86 ± 0.33 | -1.75 ± 0.32 |
| AGCAAGCAAUAUUACGUAGU | -3.18 ± 0.18 | -2.14 ± 0.19 |
| GUCUAGCAAUAUUACGAUAC | 0.218 ± 0.22 | -0.815 ± 0.22 |
| GCUAAGCAAUAUUACGUCCU | -0.847 ± 0.14 | 0.223 ± 0.17 |
| UAGCAGCAAUAUUACGCAGU | -3.58 ± 0.47 | -2.18 ± 0.21 |
| UAGUAGCAAUAUUACGUAUG | -1.82 ± 0.1 | -0.711 ± 0.12 |
| UGAGAGCAAUAUUACGAAUU | -3.84 ± 0.16 | -2.79 ± 0.17 |
| CUUGAGCAAUAUUACGCCAC | -2.82 ± 0.49 | – |
| GUGCAGCAAUAUUACGAGAU | -3.67 ± 0.2 | -1.98 ± 0.19 |
| GCCAAGCAAUAUUACGAGGA | -1.37 ± 0.1 | -0.561 ± 0.1 |
| AGCCAGCAAUAUUACGUAAG | -2.38 ± 0.057 | -1.34 ± 0.078 |
